Measured values taken from doi:10.1101/2020.08.10.244244.

Molecular target: HA-tagged mutant (Leu15) AP2σ2 subunit (human) (human) (UniProt P53680)
Assay: co-IP

AP2α subunit, endogenous in HEK293 cells (from UniProt O95782 1-977) (natural protein)
reduction of the subunit in the HA-AP2σ2 immunoprecipitate against WT cells: > 50%
